# Results published in paper PMC9482650, “Quantitative fragmentomics allow affinity mapping of interactomes” (Nature Communications, 2022).
# T1: PDZD2_2, O15018
# T1 sequence (O15018 329-429, limits assumed, looked up): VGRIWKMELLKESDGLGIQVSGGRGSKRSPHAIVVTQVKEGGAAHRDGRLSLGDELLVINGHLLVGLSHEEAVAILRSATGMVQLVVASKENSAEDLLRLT
# T2: PCLO, Q9Y6V0
# T2 sequence (Q9Y6V0 4491-4600, limits assumed, looked up): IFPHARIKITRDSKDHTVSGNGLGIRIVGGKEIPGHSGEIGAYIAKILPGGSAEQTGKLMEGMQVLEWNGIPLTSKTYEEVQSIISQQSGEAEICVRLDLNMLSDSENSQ
# T3: DFNB31_2, Q9P202
# T3 sequence (Q9P202 274-371, limits assumed, looked up): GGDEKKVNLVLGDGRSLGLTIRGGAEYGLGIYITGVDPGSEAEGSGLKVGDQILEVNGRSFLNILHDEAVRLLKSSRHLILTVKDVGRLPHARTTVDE
# T4: SIPA1L2, Q9P2F8
# T4 sequence (Q9P2F8 945-1036, limits assumed, looked up): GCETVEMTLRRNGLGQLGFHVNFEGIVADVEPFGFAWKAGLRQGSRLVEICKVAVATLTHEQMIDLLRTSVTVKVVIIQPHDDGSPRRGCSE
# T5: SNTA1, Q13424
# T5 sequence (Q13424 82-180, limits assumed, looked up): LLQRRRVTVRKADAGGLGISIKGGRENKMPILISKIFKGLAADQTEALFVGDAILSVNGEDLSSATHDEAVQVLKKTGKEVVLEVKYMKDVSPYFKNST
# T6: CARD11, Q9BXL7
# T6 sequence (Q9BXL7 662-765, limits assumed, looked up): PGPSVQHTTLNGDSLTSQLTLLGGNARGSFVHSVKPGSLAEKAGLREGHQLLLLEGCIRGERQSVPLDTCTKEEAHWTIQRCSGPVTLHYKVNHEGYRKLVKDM
# T7: LIN7A, O14910
# T7 sequence (O14910 103-200, limits assumed, looked up): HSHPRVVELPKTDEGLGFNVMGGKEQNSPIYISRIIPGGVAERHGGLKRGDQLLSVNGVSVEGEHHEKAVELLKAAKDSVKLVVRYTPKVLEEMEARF
# T8: NHERF3_1, Q5T2W1
# T8 sequence (Q5T2W1 4-100, limits assumed, looked up): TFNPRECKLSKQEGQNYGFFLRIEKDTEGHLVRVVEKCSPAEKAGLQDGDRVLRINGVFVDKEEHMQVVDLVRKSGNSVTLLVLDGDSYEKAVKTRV
# T9: MPP6, Q9NZW5
# T9 sequence (Q9NZW5 125-219, limits assumed, looked up): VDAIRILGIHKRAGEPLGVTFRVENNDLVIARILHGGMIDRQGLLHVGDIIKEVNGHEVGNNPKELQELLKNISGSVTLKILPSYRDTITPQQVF
# T10: NHERF3_4, Q5T2W1
# T10 sequence (Q5T2W1 373-468, limits assumed, looked up): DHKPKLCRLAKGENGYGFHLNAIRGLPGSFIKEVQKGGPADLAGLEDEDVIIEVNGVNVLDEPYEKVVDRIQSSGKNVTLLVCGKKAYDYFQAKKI
# T11: DFNB31_3, Q9P202
# T11 sequence (Q9P202 811-907, limits assumed, looked up): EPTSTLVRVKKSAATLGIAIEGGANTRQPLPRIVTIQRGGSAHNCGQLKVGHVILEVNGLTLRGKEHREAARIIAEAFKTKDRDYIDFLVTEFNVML
# T12: MPDZ_5, O75970
# T12 sequence (O75970 695-796, limits assumed, looked up): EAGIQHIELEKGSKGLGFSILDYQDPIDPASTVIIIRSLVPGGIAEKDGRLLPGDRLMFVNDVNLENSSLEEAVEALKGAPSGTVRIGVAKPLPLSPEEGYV
# Target: T1, PDZD2_2, O15018
# Experiment: holdup assay
# Parameters: key: below the threshold = too weak to quantify, mostly under pKd 3.1 to 4
# Conditions: plain residues with an end cap or a label only (N-terminal biotin on a linker: ado-ado)
row,Binder,pKd
1,"QSARLWETSI [ADAM22, Q9P0K1]",4.46
2,"RKPKPSSSCC [RAB9A, P51151]",4.35

# Target: IL16_3, Q14005
# Sequence (Q14005 1107-1207): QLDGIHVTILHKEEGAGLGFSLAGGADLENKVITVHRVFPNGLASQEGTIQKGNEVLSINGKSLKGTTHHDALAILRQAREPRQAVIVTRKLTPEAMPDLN
# Experiment: holdup assay
# Parameters: key: below the threshold = too weak to quantify, mostly under pKd 3.1 to 4
# Conditions: plain residues with an end cap or a label only (N-terminal biotin on a linker: ado-ado)
row,Binder,pKd
1,"QSARLWETSI [ADAM22, Q9P0K1]",below the threshold
2,"RKPKPSSSCC [RAB9A, P51151]",below the threshold

# Target: T2, PCLO, Q9Y6V0
# Experiment: holdup assay
# Parameters: key: below the threshold = too weak to quantify, mostly under pKd 3.1 to 4
# Conditions: plain residues with an end cap or a label only (N-terminal biotin on a linker: ado-ado)
row,Binder,pKd
1,"QSARLWETSI [ADAM22, Q9P0K1]",below the threshold
2,"RKPKPSSSCC [RAB9A, P51151]",below the threshold

# Target: GRID2IP_2, A4D2P6
# Sequence (A4D2P6 272-370): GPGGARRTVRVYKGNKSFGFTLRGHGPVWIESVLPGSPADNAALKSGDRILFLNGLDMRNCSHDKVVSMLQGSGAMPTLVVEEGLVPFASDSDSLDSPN
# Experiment: holdup assay
# Parameters: key: below the threshold = too weak to quantify, mostly under pKd 3.1 to 4
# Conditions: plain residues with an end cap or a label only (N-terminal biotin on a linker: ado-ado)
row,Binder,pKd
1,"QSARLWETSI [ADAM22, Q9P0K1]",4.3
2,"RKPKPSSSCC [RAB9A, P51151]",3.54

# Target: T3, DFNB31_2, Q9P202
# Experiment: holdup assay
# Parameters: key: below the threshold = too weak to quantify, mostly under pKd 3.1 to 4
# Conditions: plain residues with an end cap or a label only (N-terminal biotin on a linker: ado-ado)
row,Binder,pKd
1,"QSARLWETSI [ADAM22, Q9P0K1]",3.57
2,"RKPKPSSSCC [RAB9A, P51151]",below the threshold

# Target: T4, SIPA1L2, Q9P2F8
# Experiment: holdup assay
# Parameters: key: below the threshold = too weak to quantify, mostly under pKd 3.1 to 4
# Conditions: plain residues with an end cap or a label only (N-terminal biotin on a linker: ado-ado)
row,Binder,pKd
1,"QSARLWETSI [ADAM22, Q9P0K1]",below the threshold
2,"RKPKPSSSCC [RAB9A, P51151]",below the threshold

# Target: MAGI2_2, Q86UL8
# Sequence (Q86UL8 410-522): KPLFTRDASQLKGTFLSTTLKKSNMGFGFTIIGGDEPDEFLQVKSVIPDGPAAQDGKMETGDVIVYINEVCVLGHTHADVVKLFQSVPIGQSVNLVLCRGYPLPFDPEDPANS
# Experiment: holdup assay
# Parameters: key: below the threshold = too weak to quantify, mostly under pKd 3.1 to 4
# Conditions: plain residues with an end cap or a label only (N-terminal biotin on a linker: ado-ado)
row,Binder,pKd
1,"QSARLWETSI [ADAM22, Q9P0K1]",3.72
2,"RKPKPSSSCC [RAB9A, P51151]",below the threshold

# Target: T5, SNTA1, Q13424
# Experiment: holdup assay
# Parameters: key: below the threshold = too weak to quantify, mostly under pKd 3.1 to 4
# Conditions: plain residues with an end cap or a label only (N-terminal biotin on a linker: ado-ado)
row,Binder,pKd
1,"QSARLWETSI [ADAM22, Q9P0K1]",4.49
2,"RKPKPSSSCC [RAB9A, P51151]",below the threshold

# Target: T6, CARD11, Q9BXL7
# Experiment: holdup assay
# Parameters: key: below the threshold = too weak to quantify, mostly under pKd 3.1 to 4
# Conditions: plain residues with an end cap or a label only (N-terminal biotin on a linker: ado-ado)
row,Binder,pKd
1,"QSARLWETSI [ADAM22, Q9P0K1]",below the threshold
2,"RKPKPSSSCC [RAB9A, P51151]",below the threshold

# Target: T7, LIN7A, O14910
# Experiment: holdup assay
# Parameters: key: below the threshold = too weak to quantify, mostly under pKd 3.1 to 4
# Conditions: plain residues with an end cap or a label only (N-terminal biotin on a linker: ado-ado)
row,Binder,pKd
1,"QSARLWETSI [ADAM22, Q9P0K1]",3.69
2,"RKPKPSSSCC [RAB9A, P51151]",below the threshold

# Target: GRIP2_6, Q9C0E4
# Sequence (Q9C0E4 648-740): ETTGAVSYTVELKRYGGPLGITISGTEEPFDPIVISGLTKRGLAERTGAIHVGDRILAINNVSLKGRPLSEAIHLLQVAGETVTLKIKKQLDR
# Experiment: holdup assay
# Parameters: key: below the threshold = too weak to quantify, mostly under pKd 3.1 to 4
# Conditions: plain residues with an end cap or a label only (N-terminal biotin on a linker: ado-ado)
row,Binder,pKd
1,"QSARLWETSI [ADAM22, Q9P0K1]",3.84
2,"RKPKPSSSCC [RAB9A, P51151]",below the threshold

# Target: GRIP2_5, Q9C0E4
# Sequence (Q9C0E4 544-642): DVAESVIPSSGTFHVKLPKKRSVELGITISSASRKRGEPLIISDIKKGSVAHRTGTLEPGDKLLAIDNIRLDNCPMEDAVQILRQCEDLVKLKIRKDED
# Experiment: holdup assay
# Parameters: key: below the threshold = too weak to quantify, mostly under pKd 3.1 to 4
# Conditions: plain residues with an end cap or a label only (N-terminal biotin on a linker: ado-ado)
row,Binder,pKd
1,"QSARLWETSI [ADAM22, Q9P0K1]",below the threshold
2,"RKPKPSSSCC [RAB9A, P51151]",below the threshold

# Target: DLG2_3, Q15700
# Experiment: holdup assay
# Parameters: key: below the threshold = too weak to quantify, mostly under pKd 3.1 to 4
# Conditions: plain residues with an end cap or a label only (N-terminal biotin on a linker: ado-ado)
row,Binder,pKd
1,"QSARLWETSI [ADAM22, Q9P0K1]",4.47
2,"RKPKPSSSCC [RAB9A, P51151]",3.53

# Target: GRASP, Q7Z6J2
# Sequence (Q7Z6J2 96-193): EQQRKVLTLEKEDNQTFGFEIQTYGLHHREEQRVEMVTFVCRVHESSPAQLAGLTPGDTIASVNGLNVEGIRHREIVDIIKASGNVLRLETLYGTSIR
# Experiment: holdup assay
# Parameters: key: below the threshold = too weak to quantify, mostly under pKd 3.1 to 4
# Conditions: plain residues with an end cap or a label only (N-terminal biotin on a linker: ado-ado)
row,Binder,pKd
1,"QSARLWETSI [ADAM22, Q9P0K1]",4.17
2,"RKPKPSSSCC [RAB9A, P51151]",below the threshold

# Target: DLG1_2, Q12959
# Experiment: holdup assay
# Parameters: key: below the threshold = too weak to quantify, mostly under pKd 3.1 to 4
# Conditions: plain residues with an end cap or a label only (N-terminal biotin on a linker: ado-ado)
row,Binder,pKd
1,"QSARLWETSI [ADAM22, Q9P0K1]",4.47
2,"RKPKPSSSCC [RAB9A, P51151]",below the threshold

# Target: T8, NHERF3_1, Q5T2W1
# Experiment: holdup assay
# Parameters: key: below the threshold = too weak to quantify, mostly under pKd 3.1 to 4
# Conditions: plain residues with an end cap or a label only (N-terminal biotin on a linker: ado-ado)
row,Binder,pKd
1,"QSARLWETSI [ADAM22, Q9P0K1]",4.88
2,"RKPKPSSSCC [RAB9A, P51151]",3.61

# Target: GIPC2, Q8TF65
# Sequence (Q8TF65 112-203): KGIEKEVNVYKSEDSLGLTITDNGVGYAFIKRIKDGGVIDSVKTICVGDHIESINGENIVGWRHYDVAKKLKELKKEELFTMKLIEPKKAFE
# Experiment: holdup assay
# Parameters: key: below the threshold = too weak to quantify, mostly under pKd 3.1 to 4
# Conditions: plain residues with an end cap or a label only (N-terminal biotin on a linker: ado-ado)
row,Binder,pKd
1,"QSARLWETSI [ADAM22, Q9P0K1]",4.11
2,"RKPKPSSSCC [RAB9A, P51151]",3.73

# Target: FRMPD2_2, Q68DX3
# Sequence (Q68DX3 944-1038): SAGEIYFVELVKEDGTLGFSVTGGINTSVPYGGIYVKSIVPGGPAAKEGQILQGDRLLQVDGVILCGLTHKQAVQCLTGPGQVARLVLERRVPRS
# Experiment: holdup assay
# Parameters: key: below the threshold = too weak to quantify, mostly under pKd 3.1 to 4
# Conditions: plain residues with an end cap or a label only (N-terminal biotin on a linker: ado-ado)
row,Binder,pKd
1,"QSARLWETSI [ADAM22, Q9P0K1]",3.97
2,"RKPKPSSSCC [RAB9A, P51151]",below the threshold

# Target: T9, MPP6, Q9NZW5
# Experiment: holdup assay
# Parameters: key: below the threshold = too weak to quantify, mostly under pKd 3.1 to 4
# Conditions: plain residues with an end cap or a label only (N-terminal biotin on a linker: ado-ado)
row,Binder,pKd
1,"QSARLWETSI [ADAM22, Q9P0K1]",below the threshold
2,"RKPKPSSSCC [RAB9A, P51151]",3.51

# Target: DLG1_1, Q12959
# Experiment: holdup assay
# Parameters: key: below the threshold = too weak to quantify, mostly under pKd 3.1 to 4
# Conditions: plain residues with an end cap or a label only (N-terminal biotin on a linker: ado-ado)
row,Binder,pKd
1,"QSARLWETSI [ADAM22, Q9P0K1]",4.21
2,"RKPKPSSSCC [RAB9A, P51151]",below the threshold

# Target: T10, NHERF3_4, Q5T2W1
# Experiment: holdup assay
# Parameters: key: below the threshold = too weak to quantify, mostly under pKd 3.1 to 4
# Conditions: plain residues with an end cap or a label only (N-terminal biotin on a linker: ado-ado)
row,Binder,pKd
1,"QSARLWETSI [ADAM22, Q9P0K1]",below the threshold
2,"RKPKPSSSCC [RAB9A, P51151]",below the threshold

# Target: T11, DFNB31_3, Q9P202
# Experiment: holdup assay
# Parameters: key: below the threshold = too weak to quantify, mostly under pKd 3.1 to 4
# Conditions: plain residues with an end cap or a label only (N-terminal biotin on a linker: ado-ado)
row,Binder,pKd
1,"QSARLWETSI [ADAM22, Q9P0K1]",4.2
2,"RKPKPSSSCC [RAB9A, P51151]",3.9

# Target: NHERF2_2, Q15599
# Sequence (Q15599 142-238): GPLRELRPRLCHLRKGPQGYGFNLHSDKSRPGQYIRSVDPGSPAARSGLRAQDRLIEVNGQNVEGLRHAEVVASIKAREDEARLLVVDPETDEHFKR
# Experiment: holdup assay
# Parameters: key: below the threshold = too weak to quantify, mostly under pKd 3.1 to 4
# Conditions: plain residues with an end cap or a label only (N-terminal biotin on a linker: ado-ado)
row,Binder,pKd
1,"QSARLWETSI [ADAM22, Q9P0K1]",3.83
2,"RKPKPSSSCC [RAB9A, P51151]",below the threshold

# Target: MAST1, Q9Y2H9
# Sequence (Q9Y2H9 962-1065): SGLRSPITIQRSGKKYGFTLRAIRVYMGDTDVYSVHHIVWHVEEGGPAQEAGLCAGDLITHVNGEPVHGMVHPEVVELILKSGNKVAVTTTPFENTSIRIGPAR
# Experiment: holdup assay
# Parameters: key: below the threshold = too weak to quantify, mostly under pKd 3.1 to 4
# Conditions: plain residues with an end cap or a label only (N-terminal biotin on a linker: ado-ado)
row,Binder,pKd
1,"QSARLWETSI [ADAM22, Q9P0K1]",4.92
2,"RKPKPSSSCC [RAB9A, P51151]",below the threshold

# Target: FRMPD2_3, Q68DX3
# Sequence (Q68DX3 1073-1166): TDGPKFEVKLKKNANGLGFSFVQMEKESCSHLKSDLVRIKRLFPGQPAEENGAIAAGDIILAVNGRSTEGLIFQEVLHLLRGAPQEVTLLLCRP
# Experiment: holdup assay
# Parameters: key: below the threshold = too weak to quantify, mostly under pKd 3.1 to 4
# Conditions: plain residues with an end cap or a label only (N-terminal biotin on a linker: ado-ado)
row,Binder,pKd
1,"QSARLWETSI [ADAM22, Q9P0K1]",below the threshold
2,"RKPKPSSSCC [RAB9A, P51151]",below the threshold

# Target: T12, MPDZ_5, O75970
# Experiment: holdup assay
# Parameters: key: below the threshold = too weak to quantify, mostly under pKd 3.1 to 4
# Conditions: plain residues with an end cap or a label only (N-terminal biotin on a linker: ado-ado)
row,Binder,pKd
1,"QSARLWETSI [ADAM22, Q9P0K1]",below the threshold
2,"RKPKPSSSCC [RAB9A, P51151]",below the threshold
